From patent publication US20170327598A1, “SINGLE DOMAIN ANTIBODIES DIRECTED AGAINST INTRACELLULAR ANTIGENS” (SINGH MOLECULAR MEDICINE, LLC, priority 2014, published 2017)
Several values for one entry are separate records, joined by “and”; a condition that tells them apart may be missing. Equal entries are not always repeated.

Experiments:
[1] = target: T1, endogenous STAT3 (Homo sapiens, UniProt P40763); assay: Immunoprecipitation of endogenous STAT3 from MDA-MB-231 lysate, Western blot; type: binding; conditions: FIG. 3
T1 construct: endogenous STAT3 immunoprecipitated with all sdAbs tested at varying amounts; endogenous in cells
Method: The specificity of STAT3 sdAbs was assayed in human breast cancer cells. […] The cells were then disrupted in freshly prepared ice-cold lysis buffer (20 mM HEPES, pH 7.9, 400 mM NaCl, 0.1% NP-40, 10% glycerol, 1 mM sodium vanadate, 1 mM sodium fluoride, 1 mM dithiothreitol, 1 mM phenylmethylsulfonyl fluoride, 10 μg/mL aprotinin, 10 μg/mL leupeptin) for 45 minutes on ice. Lysates were then centrifuged, the supernatant collected, and protein concentration was determined using a modified Lowry method (Bio Rad, Hercules, Calif.). Total protein (1 mg) was incubated with 1.5 mg of Dynabeads (Invitrogen) with sdAbs against STAT3, a positive control (STAT3, cat#SC-482, Santa Cruz Biotechnology, Dallas, Tex.), or negative control (STAT-1, cat#9172, Cell Signaling, Danvers, Mass.) for 1 hour at 4° C. Beads were then washed. Following the final wash, 60 μl of lysis buffer was added, and the resulting supernatant was subject to Western blot analysis. Briefly, samples were separated on 10% polyacrylamide gels and transferred to a nitrocellulose membrane. The membranes were blocked, then incubated with appropriate primary and secondary antibodies. Anti-STAT3 antibody, used as a positive control, was from Cell Signaling (Cat#4904, Danvers, Mass.). The chemiluminescence reaction was performed using the ECL system from Santa Cruz Biotechnology (Dallas, Tex.).

[2] = tested on: MDA-MB-231 cells; assay: MTT proliferation assay, MDA-MB-231; type: cell-based, human
[3] = tested on: PANC-1 cells; assay: MTT proliferation assay, PANC-1; type: cell-based, human; conditions: for Mean Absorbance (570 nM) ± S.E.: single experiments 1-3
[4] = tested on: STAT3 reporter, induction by interleukin-6; assay: STAT3 reporter GloResponse SIE-luc2P/HEK293 cell assay, IL-6 induction; type: cell-based;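 also: IL-6 added at 40 ng/mL (EC80) for roughly one day after pretreatment, luciferase luminescence read with Bio-Glo reagent, untreated +IL6 wells serve as control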
[5] = tested on: GloResponse SIE-luc2P/HEK 293 cells; assay: BCA protein concentration of reporter cells run in parallel; type: cell-based
[6] = tested on: rabbit anti-llama biotinylated antibody or his-probe (H-3) biotin labeled antibody; assay: ELISA with sdAbs coated, binding of secondary antibodies (Experiments 2 and 3)
Method: Two assays (Experiment 2 and 3) were performed to assess the binding of the secondary antibody to the sdAbs. A similar ELISA method was utilized except the sdAbs were directly coated onto the assay plate at a concentration of 1 μg/mL. Plates were incubated overnight at 2-8° C. After the incubation, plates were washed (3×) and blocked (3% BSA in PBS) for at least one hour at room temperature.
After removal of the blocking buffer and washing (3×), the secondary antibodies, either rabbit anti-llama biotinylated antibody or his-probe (H-3) biotin labeled antibody at was then added at a 1:5,000 dilution to each well and incubated with shaking for at least one hour at room temperature. Only the rabbit anti-llama biotinylated antibody was used in Experiment 2. Both antibodies were run in parallel in Experiment 3.
After the incubation with secondary antibody, the plates were again washed (3×) and HRP at a 1:50,000 dilution was added to each well. Plates were incubated with shaking for at least one hour at room temperature. One last wash (3×) was performed followed by the addition of TMB substrate and plates were incubated at room temperature. For the anti-llama biotinylated antibody stop solution was added to halt the colorimetric reaction at 10 minutes. The his-probe (H-3) biotin labeled antibody was allowed to incubate for 20 minutes prior to stopping. The absorbance at 450 nm was measured as before.

[7] = MDA-MB-231, 5 days of treatment, 0.5 μg/ml
[8] = MDA-MB-231, 5 days of treatment, 1.0 μg/ml
[9] = MDA-MB-231, 5 days of treatment, 10.0 μg/ml
[10] = MDA-MB-231, 5 days of treatment, 100.0 μg/ml
[11] = 24 Hour Treatment Prior to IL6 Induction, high conc.: VHH13 55.8 μg/mL, VHH14 84.3 μg/mL, BB1608 4.16 μM, VHH69 50.5 μg/mL
[12] = 24 Hour Treatment Prior to IL6 Induction, low conc.: VHH13, VHH14, VHH69 10 μg/mL, BB1608 2 μM
[13] = 48 Hour Treatment Prior to IL6 Induction, high conc.: VHH13 55.8 μg/mL, VHH14 84.3 μg/mL, BB1608 4.16 μM, VHH69 50.5 μg/mL
[14] = 48 Hour Treatment Prior to IL6 Induction, low conc.: VHH13, VHH14, VHH69 10 μg/mL, BB1608 2 μM

T1 sequence (P40763 whole entry): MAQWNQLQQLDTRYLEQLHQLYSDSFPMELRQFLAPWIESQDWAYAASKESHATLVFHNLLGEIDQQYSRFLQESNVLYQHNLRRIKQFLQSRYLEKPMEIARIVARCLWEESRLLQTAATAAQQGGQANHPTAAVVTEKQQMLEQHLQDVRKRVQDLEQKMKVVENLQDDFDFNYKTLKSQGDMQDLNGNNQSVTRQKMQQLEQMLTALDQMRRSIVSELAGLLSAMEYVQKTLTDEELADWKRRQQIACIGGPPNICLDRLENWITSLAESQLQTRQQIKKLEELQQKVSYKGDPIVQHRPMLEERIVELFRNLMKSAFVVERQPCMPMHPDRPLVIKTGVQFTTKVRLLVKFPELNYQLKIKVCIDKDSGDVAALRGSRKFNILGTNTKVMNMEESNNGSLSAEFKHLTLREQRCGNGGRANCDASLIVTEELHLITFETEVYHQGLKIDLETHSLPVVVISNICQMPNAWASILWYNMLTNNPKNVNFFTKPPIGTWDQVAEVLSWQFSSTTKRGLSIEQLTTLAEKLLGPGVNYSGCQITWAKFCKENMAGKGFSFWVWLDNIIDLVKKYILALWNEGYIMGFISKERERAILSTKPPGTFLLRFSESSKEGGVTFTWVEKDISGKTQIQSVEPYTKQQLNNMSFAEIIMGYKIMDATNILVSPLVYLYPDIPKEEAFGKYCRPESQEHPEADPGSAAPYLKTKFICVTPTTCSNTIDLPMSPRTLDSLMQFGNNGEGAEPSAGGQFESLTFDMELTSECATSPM

## STAT-1: negative control in immunoprecipitation (STAT-1, cat#9172, Cell Signaling) [reference compound]
[1]
  immunoprecipitation of endogenous STAT3: no band

B1: H.VHH14: anti-STAT3 sdAb VHH14 (SEQ ID NO:4), presumably the form produced in mammalian cells (protein)
VHH: QVQLVESGGGSVQAGGSLRLSCVASTYTGCMGWFRQAPGKEREGVAALSSRGFAGHYTDSVKGRFSISRDYVKNAVYLQMNTVKPEDAAMYYCAAREGWECGETWLDRTAGGHTYWGQGTLVTVSS
modifications: Camelid
[1]
  immunoprecipitation of endogenous STAT3: immunoprecipitated
[2]; MDA-MB-231, 3 days of treatment, 1.0 μg/ml
  % Inhibition: 0.5%
[2]; [7]
  % Inhibition: 9.5%
[2]; [8]
  % Inhibition: 4.9%
[2]; [9]
  % Inhibition: 18.2%
[2]; [10]
  % Inhibition: 18.9%
[2]; MDA-MB-231, Day 3, 0.5 μg/ml
  Mean Absorbance (570 nM) ± S.E.: 0.485 ± 0.040
[2]; MDA-MB-231, Day 3, 1.0 μg/ml
  Mean Absorbance (570 nM) ± S.E.: 0.402 ± 0.017
[2]; MDA-MB-231, Day 3, 10.0 μg/ml
  Mean Absorbance (570 nM) ± S.E.: 0.588 ± 0.020
[2]; MDA-MB-231, Day 3, 100 μg/ml
  Mean Absorbance (570 nM) ± S.E.: 0.416 ± 0.030
[2]; MDA-MB-231, Day 5, 0.5 μg/ml
  Mean Absorbance (570 nM) ± S.E.: 0.890 ± 0.021
[2]; MDA-MB-231, Day 5, 1.0 μg/ml
  Mean Absorbance (570 nM) ± S.E.: 0.935 ± 0.037
[2]; MDA-MB-231, Day 5, 10.0 μg/ml
  Mean Absorbance (570 nM) ± S.E.: 0.804 ± 0.015
[2]; MDA-MB-231, Day 5, 100 μg/ml
  Mean Absorbance (570 nM) ± S.E.: 0.797 ± 0.010
[3]; PANC-1, Day 3, 10.0 μg/ml
  Mean Absorbance (570 nM) ± S.E., Overall Mean: 1.089 ± 0.085
  Mean Absorbance (570 nM) ± S.E.: 0.920 ± 0.133 and 1.183 ± 0.114 and 1.163 ± 0.044
[3]; PANC-1, Day 3, 100 μg/ml
  Mean Absorbance (570 nM) ± S.E., Overall Mean: 0.906 ± 0.054
  Mean Absorbance (570 nM) ± S.E.: 0.808 ± 0.239 and 0.993 ± 0.088 and 0.916 ± 0.088
[3]; PANC-1, Day 5, 10.0 μg/ml
  Mean Absorbance (570 nM) ± S.E., Overall Mean: 1.368 ± 0.247
  Mean Absorbance (570 nM) ± S.E.: 1.859 ± 0.033 and 1.165 ± 0.015 and 1.081 ± 0.103
[3]; PANC-1, Day 5, 100 μg/ml
  Mean Absorbance (570 nM) ± S.E., Overall Mean: 0.754 ± 0.333

B2: Anti-STAT3 VHH14: second anti-STAT3 single domain antibody, SEQ ID NO:4 (protein)
VHH: B1 VHH
modifications: Camelid
[1]
  immunoprecipitation of endogenous STAT3: immunoprecipitated
[2]; MDA-MB-231, 3 days of treatment, 10.0 μg/ml
  % Inhibition: 23.1%
[2]; MDA-MB-231, 3 days of treatment, 100.0 μg/ml
  % Inhibition: 57.0%
[2]; MDA-MB-231, 3 days, 10.0 μg/ml
  Overall Average % Inhibition: 26.2%
[2]; MDA-MB-231, 3 days, 10.0 μg/ml, single experiments 1-4, listed as B.VHH14
  Mean Growth Inhibition: 23.1% and 20.0% and 38.5% and 23.3%
[2]; MDA-MB-231, 3 days, 100 μg/ml
  Overall Average % Inhibition: 55.7%
[2]; MDA-MB-231, 3 days, 100 μg/ml, single experiments 1-4, listed as B.VHH14
  Mean Growth Inhibition: 57.0% and 42.8% and 62.3% and 60.6%
[2]; [7]
  % Inhibition: 0%
[2]; [8]
  % Inhibition: 0%
[2]; [9]
  % Inhibition: 5.5%
[2]; [10]
  % Inhibition: 18.9%
[2]; MDA-MB-231, 5 days, 10.0 μg/ml
  Overall Average % Inhibition: 14.9%
[2]; MDA-MB-231, 5 days, 100 μg/ml
  Overall Average % Inhibition: 38.6%
[2]; MDA-MB-231, Day 3, 0.5 μg/ml
  Mean Absorbance (570 nM) ± S.E.: 0.666 ± 0.022
[2]; MDA-MB-231, Day 3, 1.0 μg/ml
  Mean Absorbance (570 nM) ± S.E.: 0.644 ± 0.045
[2]; MDA-MB-231, Day 3, 10.0 μg/ml
  Mean Absorbance (570 nM) ± S.E.: 0.456 ± 0.048
[2]; MDA-MB-231, Day 3, 100 μg/ml
  Mean Absorbance (570 nM) ± S.E.: 0.255 ± 0.005
[2]; MDA-MB-231, Day 5, 0.5 μg/ml
  Mean Absorbance (570 nM) ± S.E.: 0.733 ± 0.038
[2]; MDA-MB-231, Day 5, 1.0 μg/ml
  Mean Absorbance (570 nM) ± S.E.: 0.794 ± 0.023
[2]; MDA-MB-231, Day 5, 10.0 μg/ml
  Mean Absorbance (570 nM) ± S.E.: 0.640 ± 0.011
[2]; MDA-MB-231, Day 5, 100 μg/ml
  Mean Absorbance (570 nM) ± S.E.: 0.549 ± 0.023
[2]; Table 6, MDA-MB-231, Day 3, 10.0 μg/ml
  Mean Absorbance (570 nM) ± S.E., Overall Mean: 0.504 ± 0.021
[2]; Table 6, MDA-MB-231, Day 3, 10.0 μg/ml, single experiments 1-4, listed as B.VHH14
  Mean Absorbance (570 nM) ± S.E.: 0.456 ± 0.048 and 0.499 ± 0.018 and 0.502 ± 0.048 and 0.559 ± 0.041
[2]; Table 6, MDA-MB-231, Day 3, 100 μg/ml
  Mean Absorbance (570 nM) ± S.E., Overall Mean: 0.302 ± 0.043
[2]; Table 6, MDA-MB-231, Day 3, 100 μg/ml, single experiments 1-4, listed as B.VHH14
  Mean Absorbance (570 nM) ± S.E.: 0.255 ± 0.005 and 0.357 ± 0.019 and 0.308 ± 0.021 and 0.287 ± 0.021
[2]; Table 7, MDA-MB-231, Day 5, 10.0 μg/ml
  Mean Absorbance (570 nM) ± S.E., Overall Mean: 0.688 ± 0.131
[2]; Table 7, MDA-MB-231, Day 5, 100 μg/ml
  Mean Absorbance (570 nM) ± S.E., Overall Mean: 0.475 ± 0.0690
[4]; [11]
  Average RLU: 496624 RLU
  Average RLU with Media Blank: 496598 RLU
  Luminescence (RLU), single wells: 465649 RLU and 520343 RLU and 503880 RLU
[4]; [12]
  Average RLU: 214828 RLU
  Average RLU with Media Blank: 214803 RLU
  Luminescence (RLU), single wells: 218125 RLU and 203210 RLU and 223150 RLU
[4]; [13]
  Average RLU: 480595 RLU
  Average RLU with Media Blank: 480562 RLU
  Luminescence (RLU), single wells: 494706 RLU and 488307 RLU and 458771 RLU
[4]; [14]
  Average RLU: 232537 RLU
  Average RLU with Media Blank: 232504 RLU
  Luminescence (RLU), single wells: 241785 RLU and 236843 RLU and 218982 RLU
[4]; 24 hours and 48 hours treatment prior to IL-6
  effect on IL-6 induction of STAT3 reporter: enhancement of the IL-6 induction
[5]; [11]
  Protein concentration: 270
[5]; [12]
  Protein concentration: 189
[5]; [13]
  Protein concentration: 229
[5]; [14]
  Protein concentration: 216
[6]; His-probe (H-3), Experiment 3, stored 1:100 dilution of sdAb
  OD450 Values: 3.416
[6]; Rabbit anti-Llama Secondary Antibody, Experiment 2, sdAb coated at 1 μg/mL
  OD450 Values: 2.813
[6]; Rabbit anti-Llama Secondary Antibody, Experiment 3, stored 1:100 dilution of sdAb
  OD450 Values: 2.439
